# Key:
# [1] = biological target: T1, kappa-sCD40(1-94)-Flag mutant fragment D (multiple mutations of residues 33-36) (human, UniProt P25942 21-114); assay: ELISA, mutated kappa-sCD40(1-94)-Flag captured on anti-Flag
# T1 construct: The text says only multiple mutations of residues 33-36 (human to mouse differences); that mutant D carries exactly these is inferred; also called D (33-36); not shown: N-terminal human kappa light chain; C-terminal Flag tag
# T1 chain: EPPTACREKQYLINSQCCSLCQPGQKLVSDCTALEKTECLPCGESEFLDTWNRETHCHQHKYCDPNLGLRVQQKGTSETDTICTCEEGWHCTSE
# [2] = biological target: T2, kappa-sCD40(1-94)-Flag point mutant E33A (human, UniProt P25942 21-114); assay: as above
# T2 construct: not shown: N-terminal human kappa light chain; C-terminal Flag tag
# T2 chain: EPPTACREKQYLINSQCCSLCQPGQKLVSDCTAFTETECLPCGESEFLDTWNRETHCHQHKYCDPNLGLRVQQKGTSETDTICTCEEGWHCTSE
# [3] = biological target: T3, kappa-sCD40(1-94)-Flag mutant fragment A (multiple mutations of residues 1-5) (human, UniProt P25942 26-114); assay: ELISA, kappa-sCD40-Flag fusion (~2 ug/ml) captured on anti-Flag, anti-human IgG Fc-HRP
# T3 construct: The text says only multiple mutations of residues 1-5 (human to mouse differences); that mutant A carries exactly these is inferred; also called A (1-5); not shown: N-terminal human kappa light chain; C-terminal Flag tag
# Experimental: (§1) containing the sCD40 fusion proteins were captured to microtiter plates that were pre-coated with 5 μg/ml mouse anti-Flag antibody (Sigma) in PBS and blocked with 5% bovine serum albumin in PBS. Following incubation with the CD40 antibody, the microplates were washed with PBS/Tween, and incubated with a goat anti-human IgG Fc polyclonal reagent conjugated to horseradish peroxidase. After washing, the plates were developed with HRP substrate, and analyzed at OD 450-650 using a microtiter plate reader. An ELISA with a goat anti-human IgG Fab2-HRP to measure kappa chain binding was carried out in parallel to validate the sCD40 fusion protein expression from different transfections.
# [4] = biological target: T4, kappa-sCD40(1-94)-Flag point mutant P2Q (human, UniProt P25942 21-114); assay: as above
# T4 construct: not shown: N-terminal human kappa light chain; C-terminal Flag tag
# T4 chain: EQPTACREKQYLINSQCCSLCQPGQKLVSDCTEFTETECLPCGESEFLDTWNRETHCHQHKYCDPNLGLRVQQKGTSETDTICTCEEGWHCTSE
# Experimental: as §1
# [5] = biological target: T5, kappa-sCD40(1-94)-Flag point mutant A5T (human, UniProt P25942 21-114); assay: as above
# T5 construct: not shown: N-terminal human kappa light chain; C-terminal Flag tag
# T5 chain: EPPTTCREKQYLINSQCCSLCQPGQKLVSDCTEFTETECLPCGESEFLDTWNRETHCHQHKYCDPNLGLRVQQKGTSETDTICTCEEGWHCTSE
# Experimental: as §1
# [6] = biological target: T6, kappa-sCD40(1-94)-Flag point mutant F34L (human, UniProt P25942 21-114); assay: as above
# T6 construct: not shown: N-terminal human kappa light chain; C-terminal Flag tag
# T6 chain: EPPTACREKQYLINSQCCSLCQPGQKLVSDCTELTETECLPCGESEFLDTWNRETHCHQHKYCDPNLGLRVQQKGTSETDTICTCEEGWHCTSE
# Experimental: as §1
# [7] = biological target: T7, kappa-sCD40(1-94)-Flag point mutant T35E (human, UniProt P25942 21-114); assay: as above
# T7 construct: not shown: N-terminal human kappa light chain; C-terminal Flag tag
# T7 chain: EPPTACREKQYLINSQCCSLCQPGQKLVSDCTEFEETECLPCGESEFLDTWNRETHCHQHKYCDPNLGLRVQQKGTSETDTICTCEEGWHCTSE
# Experimental: as §1
# [8] = biological target: T8, kappa-sCD40(1-94)-Flag point mutant P3S (human, UniProt P25942 21-114); assay: as above
# T8 construct: not shown: N-terminal human kappa light chain; C-terminal Flag tag
# T8 chain: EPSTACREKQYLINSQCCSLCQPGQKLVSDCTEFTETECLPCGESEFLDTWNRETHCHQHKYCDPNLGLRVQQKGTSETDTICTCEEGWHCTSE
# Experimental: as §1
# [9] = biological target: T1, kappa-sCD40(1-94)-Flag mutant fragment …; assay: as above
# Experimental: as §1
# [10] = biological target: T9, kappa-sCD40-Flag fusion protein, fragment amino acids 1-94 (human, UniProt P25942 21-114); assay: as above
# T9 construct: also called sCD40aa 1-94; not shown: N-terminal human kappa light chain; C-terminal Flag tag
# Experimental: as §1
# [11] = biological target: T10, kappa-sCD40(1-94)-Flag point mutant E36K (human, UniProt P25942 21-114); assay: as above
# T10 construct: not shown: N-terminal human kappa light chain; C-terminal Flag tag
# T10 chain: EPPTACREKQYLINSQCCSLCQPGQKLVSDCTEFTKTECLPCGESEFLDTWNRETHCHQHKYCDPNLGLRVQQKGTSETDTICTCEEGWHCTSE
# Experimental: as §1
# [12] = biological target: T2, kappa-sCD40(1-94)-Flag point mutant E33A; assay: as above
# Experimental: as §1
# [13] = biological target: T11, kappa-sCD40(1-94)-Flag point mutant E1G (human, UniProt P25942 22-114); assay: as above
# T11 construct: not shown: N-terminal human kappa light chain; C-terminal Flag tag
# Experimental: as §1
# [14] = biological target: T12, kappa-sCD40(1-94)-Flag point mutant T4V (human, UniProt P25942 21-114); assay: as above
# T12 construct: not shown: N-terminal human kappa light chain; C-terminal Flag tag
# T12 chain: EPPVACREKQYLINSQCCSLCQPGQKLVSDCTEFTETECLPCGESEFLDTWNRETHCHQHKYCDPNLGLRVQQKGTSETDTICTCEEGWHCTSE
# Experimental: as §1
binding result [1],binding result [2],Average OD [3],Average OD [4],Average OD [5],Average OD [6],Average OD [7],Average OD [8],Average OD [9],Average OD [10],Average OD [11],Average OD [12],Average OD [13],Average OD [14],Binder
no binding,no binding,–,–,–,–,–,–,–,–,–,–,–,–,"anti-CD40 human monoclonal antibody 3G5 (antibody, human IgG2, V domains shown, Human IgG2) VH: QVQLVESGGGVVQPGKSLRLSCAASGFTFSSNGIHWVRQAPGKGLEWVAVIWSDGSNKFYADSVKGRFTISRDNSKNTLYLQMNSLRAEDTAVYYCARASGSGSYYNFFDYWGQGTLVTVSS VL: EIVMTQSPATLSVSPGERATLSCRASQSVRSNLAWYQQKPGQAPRLLIYGASTRATGIPARFSGSGSGTEFTLTINSLQSEDFAVYYCQQHNKWITFGQGTRLEIK"
–,–,0.167 OD 450-650,2.08 OD 450-650,1.13 OD 450-650,1.88 OD 450-650,2.07 OD 450-650,2.01 OD 450-650,0.124 OD 450-650,2.16 OD 450-650,1.37 OD 450-650,1.62 OD 450-650,1.97 OD 450-650,2.15 OD 450-650,"anti-CD40 human monoclonal antibody 3C3 (antibody, human IgG2, kappa, V domains shown, Human IgG2, C-terminal lysine removed; also called anti-CD40 mAb 3C3; CD40 antibody 3C3) VH: QVQLVESGGGVVQPGRSLRLSCAGSGFIFSRYGMYWVRQAPGKGLEWVAVIWYDGSYKYYADSVKGRFTISRDNSKNTLYLQMNSLRAEDTAVYYCARESPWYYFDYWGQGTLVTVSS VL: DIQMTQSPSSLSASVGDRVTITCRASQGISNYLAWYQQKPGKVPKLLIYAASTLQSGVPSRFSGSGSGTDFTLTISSLQPEDVATYYCQKYKSAPFTFGPGTKVDIKR"

# Reference: patent US20250115663A1 (CELLDEX THERAPEUTICS, published 2025)
